Earlier results, collected in patent US20210100896A1, “METHODS AND COMPOSITIONS FOR STIMULATING THE IMMUNE SYSTEM” (University of Miami, priority 2017, published 2021).

Tested on: tumor
Conditions: tumor bearing mice

B1: Flt3L: cytokine that promotes hematopoietic progenitor commitment to the DC lineage (protein, UniProt P49771 27-235, looked up)
Fms-related tyrosine kinase 3 …: TQDCSFQHSPISSDFAVKIRELSDYLLQDYPVTVASNLQDEELCGGLWRLVLAQRWMERLKTVAGSKMQGLLERVNTEIHFVTKCAFQPPPSCLRFVQTNISRLLQETSEQLVALKPWITRQNFSRCLELQCQPDSSTLPPPWSPRPLEATAPTAPQPPLLLLLLLPVGLLLLAAAWCLHWQRTRRRTPRPGEQVPPVPSPQDLLLVEH
Question: For B1, which “intratumoral accumulation of DC and tumor inhibition” value is on record?
Answer: enhanced intratumoral accumulation of DC and tumor inhibition
